Data taken from PMC7642682, “SPOR Proteins Are Required for Functionality of Class A Penicillin-Binding Proteins in Escherichia coli” (mBio, 2020).
Each block holds one binder with its values, some of them ahead of it.

Experiments:
[1] = target: T1, penicillin-binding protein 1B (PBP1B) (Escherichia coli, UniProt P02919 1-844); test: cell-based or functional assay
T1 sequence (looked up): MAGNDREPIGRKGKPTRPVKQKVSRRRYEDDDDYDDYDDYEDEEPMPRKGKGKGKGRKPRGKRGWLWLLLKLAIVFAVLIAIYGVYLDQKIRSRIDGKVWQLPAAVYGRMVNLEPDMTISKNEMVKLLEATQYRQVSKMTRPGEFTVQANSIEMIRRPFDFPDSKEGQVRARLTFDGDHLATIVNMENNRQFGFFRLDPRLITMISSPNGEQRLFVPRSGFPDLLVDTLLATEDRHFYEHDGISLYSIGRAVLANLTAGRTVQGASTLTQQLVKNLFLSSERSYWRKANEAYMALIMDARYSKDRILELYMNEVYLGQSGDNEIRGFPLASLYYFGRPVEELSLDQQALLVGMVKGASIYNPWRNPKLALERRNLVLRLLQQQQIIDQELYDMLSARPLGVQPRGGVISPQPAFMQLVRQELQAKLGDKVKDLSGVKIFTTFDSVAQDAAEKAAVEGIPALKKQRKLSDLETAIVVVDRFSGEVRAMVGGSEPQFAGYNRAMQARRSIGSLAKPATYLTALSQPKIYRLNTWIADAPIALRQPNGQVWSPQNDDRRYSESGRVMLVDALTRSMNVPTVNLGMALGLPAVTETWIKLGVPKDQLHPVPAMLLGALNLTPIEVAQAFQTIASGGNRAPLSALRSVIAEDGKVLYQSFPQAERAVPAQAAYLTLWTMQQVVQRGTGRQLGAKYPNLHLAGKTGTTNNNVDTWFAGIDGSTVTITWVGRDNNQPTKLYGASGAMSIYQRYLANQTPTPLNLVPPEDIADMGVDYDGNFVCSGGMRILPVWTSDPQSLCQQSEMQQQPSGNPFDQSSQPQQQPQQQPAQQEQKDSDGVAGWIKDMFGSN

[2] = target: T2, penicillin-binding protein 1A (PBP1A) (Escherichia coli, UniProt P02918 1-850); test: cell-based or functional assay
T2 sequence (looked up): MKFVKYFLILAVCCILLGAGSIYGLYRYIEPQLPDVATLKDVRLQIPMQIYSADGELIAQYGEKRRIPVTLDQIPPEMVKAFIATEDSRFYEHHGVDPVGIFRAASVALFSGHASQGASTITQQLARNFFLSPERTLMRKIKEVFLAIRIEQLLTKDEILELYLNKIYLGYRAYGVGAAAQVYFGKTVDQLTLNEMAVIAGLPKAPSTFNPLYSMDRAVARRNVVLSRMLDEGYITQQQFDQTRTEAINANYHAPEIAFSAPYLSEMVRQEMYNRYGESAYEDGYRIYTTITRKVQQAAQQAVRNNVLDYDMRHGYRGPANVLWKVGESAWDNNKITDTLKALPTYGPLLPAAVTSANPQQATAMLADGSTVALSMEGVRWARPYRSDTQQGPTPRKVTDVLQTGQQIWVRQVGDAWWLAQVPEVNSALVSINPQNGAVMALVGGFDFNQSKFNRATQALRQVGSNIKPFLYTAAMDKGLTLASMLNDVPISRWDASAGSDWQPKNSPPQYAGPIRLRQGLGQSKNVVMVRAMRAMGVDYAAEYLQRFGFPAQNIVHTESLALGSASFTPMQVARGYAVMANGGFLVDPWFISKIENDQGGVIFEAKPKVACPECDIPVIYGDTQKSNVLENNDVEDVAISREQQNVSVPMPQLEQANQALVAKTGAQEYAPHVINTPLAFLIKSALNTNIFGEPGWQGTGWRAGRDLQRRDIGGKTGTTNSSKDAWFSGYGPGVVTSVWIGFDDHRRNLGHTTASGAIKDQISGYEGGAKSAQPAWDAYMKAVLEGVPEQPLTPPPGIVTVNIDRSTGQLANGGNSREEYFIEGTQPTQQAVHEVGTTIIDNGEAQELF

- GTase rate of PBP1B (consumption of fluorescent dansyl-lipid II), fold over PBP1B alone; 0.5 uM PBP1B, 2 uM purified DamX [1]: 2 fold
B1: His-DamX (natural protein, Escherichia coli, UniProt P11557 1-428, looked up)
chain: MDEFKPEDELKPDPSDRRTGRSRQSSERSERTERGEPQINFDDIELDDTDDRRPTRAQKERNEEPEIEEEIDESEDETVDEERVERRPRKRKKAASKPASRQYMMMGVGILVLLLLIIGIGSALKAPSTTSSDQTASGEKSIDLAGNATDQANGVQPAPGTTSAENTQQDVSLPPISSTPTQGQTPVATDGQQRVEVQGDLNNALTQPQNQQQLNNVAVNSTLPTEPATVAPVRNGNASRDTAKTQTAERPSTTRPARQQAVIEPKKPQATVKTEPKPVAQTPKRTEPAAPVASTKAPAATSTPAPKETATTAPVQTASPAQTTATPAAGAKTAGNVGSLKSAPSSHYTLQLSSSSNYDNLNGWAKKENLKNYVVYETTRNGQPWYVLVSGVYASKEEAKKAVSTLPADVQAKNPWAKPLRQVQADLK

- GTase rate of PBP1A (consumption of fluorescent dansyl-lipid II), fold over PBP1A alone; 0.5 uM PBP1A, 2 uM purified DedD [2]: 1.8 fold
- GTase rate of PBP1B (consumption of fluorescent dansyl-lipid II), fold over PBP1B alone; 0.5 uM PBP1B, 2 uM purified DedD [1]: 2.6 fold
B2: His-DedD (natural protein, Escherichia coli, UniProt P09549 1-220, looked up)
chain: MASKFQNRLVGTIVLVALGVIVLPGLLDGQKKHYQDEFAAIPLVPKAGDRDEPDMMPAATQALPTQPPEGAAEEVRAGDAAAPSLDPATIAANNTEFEPEPAPVAPPKPKPVEPPKPKVEAPPAPKPEPKPVVEEKAAPTGKAYVVQLGALKNADKVNEIVGKLRGAGYRVYTSPSTPVQGKITRILVGPDASKDKLKGSLGELKQLSGLSGVVMGYTPN
